Experimental data from patent US20040248254A1.

Biological target: IL-1Rrp1 and mouse ACPL polypeptide coexpressed in transfected cells (IL-18 receptor) (mouse)
Test: cell-based or functional assay

IL-1Rrp1 and mouse ACPL polypeptide coexpressed in transfected cells (IL-18 receptor) (mouse), sequence (Q9Z2B1 15-614): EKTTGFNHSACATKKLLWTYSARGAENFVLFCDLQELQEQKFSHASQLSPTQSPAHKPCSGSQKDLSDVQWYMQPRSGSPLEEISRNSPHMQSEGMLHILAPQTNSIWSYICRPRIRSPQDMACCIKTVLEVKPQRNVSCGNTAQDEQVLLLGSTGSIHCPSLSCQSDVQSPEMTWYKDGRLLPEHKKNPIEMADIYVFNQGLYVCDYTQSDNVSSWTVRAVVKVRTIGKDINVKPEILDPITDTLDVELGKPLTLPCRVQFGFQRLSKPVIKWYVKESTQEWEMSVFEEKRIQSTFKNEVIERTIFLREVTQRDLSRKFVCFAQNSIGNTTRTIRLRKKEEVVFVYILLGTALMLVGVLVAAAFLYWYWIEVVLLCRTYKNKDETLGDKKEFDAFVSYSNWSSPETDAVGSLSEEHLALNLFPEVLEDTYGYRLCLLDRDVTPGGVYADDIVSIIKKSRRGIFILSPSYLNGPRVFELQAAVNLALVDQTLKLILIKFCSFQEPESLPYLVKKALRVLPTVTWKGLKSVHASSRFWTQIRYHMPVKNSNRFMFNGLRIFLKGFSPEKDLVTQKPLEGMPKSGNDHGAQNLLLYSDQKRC

“murine IL-18 (PeproTech) (from UniProt P70380 36-192) (ligand)” showed an induction of the NFkB-linked gene (NFkB-Luc luciferase reporter) in COS cells of 10 fold and an induction of the NFkB-linked gene (NFkB-Luc luciferase reporter) in S49 cells of 300 fold.
